# No end group written: not given here. *: point of attachment. Biotin = O=C1N[C@H]2[C@H](CS[C@H]2CCCCC(=O)*)N1
# How the values were obtained:
# Assay in all cases: G assays, titrations or binding assays of peptides
# Syntrophin 1 alpha d1 = target: T1, Syntrophin 1 alpha d1 (Homo sapiens, UniProt Q13424); settings: peptide demonstrated to bind syntrophin 1 alpha d1 in G assays
# T1 construct: made in house; host or cells: E. coli (DH5α, BL21 or JM109)
# T1 sequence (Q13424 84-177): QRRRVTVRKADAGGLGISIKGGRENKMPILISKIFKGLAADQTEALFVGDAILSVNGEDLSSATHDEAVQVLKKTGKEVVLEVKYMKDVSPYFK
# Procedure: In one aspect, the invention provides an assay in which a GST/PDZ fusion protein is immobilized on a surface (G assay). The binding of labeled PL peptide (e.g., as listed in TABLE 2 and TABLE 4) to this surface is then measured. In a preferred embodiment, the assay is carried out as follows:
# (1) A PDZ-domain polypeptide is bound to a surface, e.g. a protein binding surface. In a preferred embodiment, a GST/PDZ fusion protein containing one or more PDZ domains is bound to a polystyrene 96-well plate. […] In one embodiment, the GST/PDZ fusion protein is bound via an anti-GST antibody that is coated onto the 96-well plate. Adequate binding to the plate can be achieved when: • a. 100 μl per well of 5 μg/ml goat anti-GST polyclonal antibody (Pierce) in PBS is added to a polystyrene 96-well plate (e.g., Nunc Polysorp) at 4° C. for 12 hours. • b. The plate is blocked by addition of 200 μl per well of PBS/BSA for 2 hours at 4° C. • c. The plate is washed 3 times with PBS. • d. 50 μl per well of 5 μg/ml GST/PDZ fusion protein) or, as a negative control, GST polypeptide alone (i.e. not a fusion protein) in PBS/BSA is added to the plate for 2 hours at 4° C. • e. the plate is again washed 3 times with PBS.
# (2) Biotinylated PL peptides are allowed to react with the surface by addition of 50 μl per well of 20 μM solution of the biotinylated peptide in PBS/BSA for 10 minutes at 4° C., followed by an additional 20 minute incubation at 25° C. The plate is washed 3 times with ice cold PBS.
# (3) The binding of the biotinylated peptide to the GST/PDZ fusion protein surface can be detected using a variety of methods and detectors known to one of skill in the art. In one embodiment, 100 μl per well of 0.5 μg/ml streptavidin-horseradish peroxidase (HRP) conjugate dissolved in BSA/PBS is added and allowed to react for 20 minutes at 4° C. The plate is then washed 5 times with 50 mM Tris pH 8.0 containing 0.2% Tween 20, and developed by addition of 100 μl per well of HRP-substrate solution (TMB, Dako) for 20 minutes at room temperature (RT). The reaction of the HRP and its substrate is terminated by addition of 100 μl per well of 1 M sulfuric acid, and the optical density (O.D.) of each well of the plate is read at […].
# (4) Specific binding of a PL peptide and a PDZ domain polypeptide is determined by comparing the signal from the well(s) in which the PL peptide and PDZ domain polypeptide are combined, with the background signal(s). The background signal is the signal found in the negative control(s). Typically a specific or selective reaction will be at least twice background signal, more typically more than 5 times background, and most typically 10 or more times the background signal. In addition, a statistically significant reaction will involve multiple measurements of the reaction with the signal and the background differing by at least two standard errors, more typically four standard errors, and most typically six or more standard errors. Correspondingly, a statistical test (e.g. a T-test) comparing repeated measurements of the signal with repeated measurements of the background will result in a p-value <0.05, more typically a p-value <0.01, and most typically a p-value <0.001 or less. As noted, in an embodiment of the G assay, the signal from binding of a given PL peptide to immobilized (surface bound) GST polypeptide alone is one suitable negative control (sometimes referred to as B1). Because all measurement are done in multiples (i.e. at least duplicate) the arithmetic mean (or, equivalently, average.) of several measurements is used in determining the binding, and the standard error of the mean is used in determining the probable error in the measurement of the binding. The standard error of the mean of N measurements equals the square root of the following: the sum of the squares of the difference between each measurement and the mean, divided by the product of (N) and (N−1). […]
# PAR3 d3 = target: T2, PAR3 d3 (Homo sapiens, UniProt Q8TEW0, R682S); settings: peptide demonstrated to bind PAR3 d3 in G assays
# T2 construct: made in house; host or cells: E. coli (DH5α, BL21 or JM109)
# T2 sequence (Q8TEW0 with tags, fused parts or gaps R682S): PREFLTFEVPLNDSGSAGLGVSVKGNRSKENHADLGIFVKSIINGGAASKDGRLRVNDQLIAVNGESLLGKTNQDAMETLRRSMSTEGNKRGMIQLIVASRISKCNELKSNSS
# Procedure: (§1) In one aspect, the invention provides an assay in which a GST/PDZ fusion protein is immobilized on a surface (G assay). […] In a preferred embodiment, the assay is carried out as follows:
# (§2) (3) The binding of the biotinylated peptide to the GST/PDZ fusion protein surface can be detected using a variety of methods and detectors known to one of skill in the art. In one embodiment, 100 μl per well of 0.5 μg/ml streptavidin-horseradish peroxidase (HRP) conjugate dissolved in BSA/PBS is added and allowed to react for 20 minutes at 4° C. The plate is then washed 5 times with 50 mM Tris pH 8.0 containing 0.2% Tween 20, and developed by addition of 100 μl per well of HRP-substrate solution (TMB, Dako) for 20 minutes at room temperature (RT). The reaction of the HRP and its substrate is terminated by addition of 100 μl per well of 1 M sulfuric acid, and the optical density (O.D.) of each well of the plate is read at 450 um.
# (§3) (4) Specific binding of a PL peptide and a PDZ domain polypeptide is determined by comparing the signal from the well(s) in which the PL peptide and PDZ domain polypeptide are combined, with the background signal(s). […] Typically a specific or selective reaction will be at least twice background signal, more typically more than 5 times background, and most typically 10 or more times the background signal. […] Correspondingly, a statistical test (e.g. a T-test) comparing repeated measurements of the signal with repeated measurements of the background will result in a p-value <0.05, more typically a p-value <0.01, and most typically a p-value <0.001 or less. As noted, in an embodiment of the G assay, the signal from binding of a given PL peptide to immobilized (surface bound) GST polypeptide alone is one suitable negative control (sometimes referred to as B1). Because all measurement are done in multiples (i.e. at least duplicate) the arithmetic mean (or, equivalently, average.) of several measurements is used in determining the binding, and the standard error of the mean is used in determining the probable error in the measurement of the binding. The standard error of the mean of N measurements equals the square root of the following: the sum of the squares of the difference between each measurement and the mean, divided by the product of (N) and (N−1). Thus, in one embodiment, specific binding of the PDZ protein to the platebound peptide is determined by comparing the mean signal (“mean S”) and standard error of the signal (“SE”) for a particular PL-PDZ combination with the mean B1.
# ZO-1 d2 = target: T3, ZO-1 d2 (Homo sapiens, UniProt Q07157, DEL264-264); settings: peptide demonstrated to bind ZO-1 d2 in G assays
# T3 construct: made in house; host or cells: E. coli (DH5α, BL21 or JM109)
# T3 sequence (Q07157 with tags, fused parts or gaps DEL264-264): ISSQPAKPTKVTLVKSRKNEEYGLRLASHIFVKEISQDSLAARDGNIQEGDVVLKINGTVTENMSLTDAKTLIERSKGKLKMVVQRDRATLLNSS
# Procedure: as §1, §2, §3
# INADL d3 = target: T4, INADL d3 (Homo sapiens, UniProt Q8NI35); settings: peptide demonstrated to bind INADL d3 in G assays
# T4 construct: made in house; host or cells: E. coli (DH5α, BL21 or JM109)
# T4 sequence (Q8NI35 with tags, fused parts or gaps): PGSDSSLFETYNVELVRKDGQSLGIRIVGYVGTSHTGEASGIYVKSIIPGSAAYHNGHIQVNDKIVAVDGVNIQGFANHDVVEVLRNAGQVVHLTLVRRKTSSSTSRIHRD
# Procedure: as §1, §2, §3
# RIM2 d1 = target: T5, RIM2 d1 (Homo sapiens, UniProt Q9UQ26); settings: peptide demonstrated to bind RIM2 d1 in G assays
# T5 construct: made in house; host or cells: E. coli (DH5α, BL21 or JM109)
# T5 sequence (Q9UQ26 632-757): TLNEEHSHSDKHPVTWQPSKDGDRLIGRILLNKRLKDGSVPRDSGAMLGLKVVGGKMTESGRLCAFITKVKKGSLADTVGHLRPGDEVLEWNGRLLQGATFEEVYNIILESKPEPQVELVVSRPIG
# Procedure: as §1, §2, §3
substance,measurement,setting,value
AAGGRSARGGRLQGRRETAL,POZ domain bound,Syntrophin 1 alpha d1,Syntrophin 1 alpha D1
YGRKKRRQRRRKLSSIESDV (Biotin-YGRKKRRQRRRKLSSIESDV),POZ domain bound,PAR3 d3,PAR3 D3
same,POZ domain bound,Syntrophin 1 alpha d1,Syntrophin 1 alpha D1
same,POZ domain bound,ZO-1 d2,ZO-1 D2
HSCCNRARQERLQRRRETQV (Biotin-HSCCNRARQERLQRRRETQV; cysteine pairing not given here),POZ domain bound,INADL d3,INADL D3
same,POZ domain bound,PAR3 d3,PAR3 D3
same,POZ domain bound,Syntrophin 1 alpha d1,Syntrophin 1 alpha D1
same,POZ domain bound,ZO-1 d2,ZO-1 D2
LAVLAYSITLVMLWSIWQYA (Biotin-LAVLAYSITLVMLWSIWQYA),POZ domain bound,INADL d3,INADL D3
same,POZ domain bound,PAR3 d3,PAR3 D3
same,POZ domain bound,RIM2 d1,RIM2 D1
same,POZ domain bound,Syntrophin 1 alpha d1,Syntrophin 1 alpha D1
same,POZ domain bound,ZO-1 d2,ZO-1 D2
VPGALDYAAFSSALYGESDL (Biotin-VPGALDYAAFSSALYGESDL),POZ domain bound,Syntrophin 1 alpha d1,Syntrophin 1 alpha D1
DTLLLTENEGDKTEEQVSYV (Biotin-DTLLLTENEGDKTEEQVSYV),POZ domain bound,PAR3 d3,PAR3 D3
same,POZ domain bound,Syntrophin 1 alpha d1,Syntrophin 1 alpha D1
TQGFPGPATWRRISSLESEV (Biotin-TQGFPGPATWRRISSLESEV),POZ domain bound,INADL d3,INADL D3
same,POZ domain bound,Syntrophin 1 alpha d1,Syntrophin 1 alpha D1
PIPAGGCTFSGIFPTLTSPL (Biotin-PIPAGGCTFSGIFPTLTSPL),POZ domain bound,INADL d3,INADL D3
same,POZ domain bound,PAR3 d3,PAR3 D3
same,POZ domain bound,Syntrophin 1 alpha d1,Syntrophin 1 alpha D1
SSKSKSSEESQTFFGLYKL (Biotin-SSKSKSSEESQTFFGLYKL),POZ domain bound,INADL d3,INADL D3
same,POZ domain bound,PAR3 d3,PAR3 D3
same,POZ domain bound,RIM2 d1,RIM2 D1
same,POZ domain bound,Syntrophin 1 alpha d1,Syntrophin 1 alpha D1
same,POZ domain bound,ZO-1 d2,ZO-1 D2
FNGSSNGHVYEKLSSIESDV (Biotin-FNGSSNGHVYEKLSSIESDV),POZ domain bound,Syntrophin 1 alpha d1,Syntrophin 1 alpha D1
"VHDAESSOEDGYDWGPATDL: peptide, SEQ ID NO:330 (Biotin-VHDAESSDEDGYDWGPATDL)",POZ domain bound,Syntrophin 1 alpha d1,Syntrophin 1 alpha D1
DFRPSFKHILFRRARRGFRQ (Biotin-DFRPSFKHILFRRARRGFRQ),POZ domain bound,INADL d3,INADL D3
same,POZ domain bound,PAR3 d3,PAR3 D3
same,POZ domain bound,RIM2 d1,RIM2 D1
same,POZ domain bound,Syntrophin 1 alpha d1,Syntrophin 1 alpha D1
same,POZ domain bound,ZO-1 d2,ZO-1 D2
RELVDRGEVRQFTLRHWLKV (Biotin-RELVDRGEVRQFTLRHWLKV),POZ domain bound,INADL d3,INADL D3
same,POZ domain bound,PAR3 d3,PAR3 D3
same,POZ domain bound,RIM2 d1,RIM2 D1
same,POZ domain bound,Syntrophin 1 alpha d1,Syntrophin 1 alpha D1
same,POZ domain bound,ZO-1 d2,ZO-1 D2
TGSALQAWRHTSRQATESTV (Biotin-TGSALQAWRHTSRQATESTV),POZ domain bound,Syntrophin 1 alpha d1,Syntrophin 1 alpha D1
KKKKQPGNSTKESESTNSVRLML (Biotin-KKKKQPGNSTKESESTNSVRLML),POZ domain bound,INADL d3,INADL D3
same,POZ domain bound,PAR3 d3,PAR3 D3
same,POZ domain bound,RIM2 d1,RIM2 D1
same,POZ domain bound,Syntrophin 1 alpha d1,Syntrophin 1 alpha D1
same,POZ domain bound,ZO-1 d2,ZO-1 D2
AVGGRPARGGRLQGRRQTQV,POZ domain bound,Syntrophin 1 alpha d1,Syntrophin 1 alpha D1
QISPGGLEPPSEKHFRETEV,POZ domain bound,Syntrophin 1 alpha d1,Syntrophin 1 alpha D1
TFKGTPTAENPEYLGLDVPV (Biotin-TFKGTPTAENPEYLGLDVPV),POZ domain bound,Syntrophin 1 alpha d1,Syntrophin 1 alpha D1
GRWTGRAMSAWKPTRRETEV (Biotin-GRWTGRAMSAWKPTRRETEV),POZ domain bound,INADL d3,INADL D3
same,POZ domain bound,Syntrophin 1 alpha d1,Syntrophin 1 alpha D1
ILNSIQVMRAQMNQIQSVEV (Biotin-ILNSIQVMRAQMNQIQSVEV),POZ domain bound,INADL d3,INADL D3
same,POZ domain bound,PAR3 d3,PAR3 D3
same,POZ domain bound,Syntrophin 1 alpha d1,Syntrophin 1 alpha D1
same,POZ domain bound,ZO-1 d2,ZO-1 D2
YGRKKRRQRRRNDNIALLVQ,POZ domain bound,PAR3 d3,PAR3 D3
same,POZ domain bound,RIM2 d1,RIM2 D1
same,POZ domain bound,Syntrophin 1 alpha d1,Syntrophin 1 alpha D1
same,POZ domain bound,ZO-1 d2,ZO-1 D2
PYSELNYETSHYPASPDSWV (Biotin-PYSELNYETSHYPASPDSWV),POZ domain bound,Syntrophin 1 alpha d1,Syntrophin 1 alpha D1
HDFRRAFKKILARGDRKRIV (Biotin-HDFRRAFKKILARGDRKRIV),POZ domain bound,INADL d3,INADL D3
same,POZ domain bound,PAR3 d3,PAR3 D3
same,POZ domain bound,RIM2 d1,RIM2 D1
same,POZ domain bound,Syntrophin 1 alpha d1,Syntrophin 1 alpha D1
same,POZ domain bound,ZO-1 d2,ZO-1 D2
HHLVAQRDIRQFQLQHWLAI (Biotin-HHLVAQRDIRQFQLQHWLAI),POZ domain bound,INADL d3,INADL D3
same,POZ domain bound,PAR3 d3,PAR3 D3
same,POZ domain bound,RIM2 d1,RIM2 D1
same,POZ domain bound,Syntrophin 1 alpha d1,Syntrophin 1 alpha D1
same,POZ domain bound,ZO-1 d2,ZO-1 D2
VHKVRNKFKAKCSLCRLYII (Biotin-VHKVRNKFKAKCSLCRLYII; cysteine pairing not given here),POZ domain bound,INADL d3,INADL D3
same,POZ domain bound,PAR3 d3,PAR3 D3
same,POZ domain bound,RIM2 d1,RIM2 D1
same,POZ domain bound,Syntrophin 1 alpha d1,Syntrophin 1 alpha D1
same,POZ domain bound,ZO-1 d2,ZO-1 D2
QDFRRAFRRILARPWTQTAW (Biotin-QDFRRAFRRILARPWTQTAW),POZ domain bound,INADL d3,INADL D3
same,POZ domain bound,PAR3 d3,PAR3 D3
same,POZ domain bound,RIM2 d1,RIM2 D1
same,POZ domain bound,Syntrophin 1 alpha d1,Syntrophin 1 alpha D1
same,POZ domain bound,ZO-1 d2,ZO-1 D2

# Source: patent US7858322B2, “Method of determining inhibition of binding to TRPM7 protein” (NoNo, Inc., priority 2003, dated 2010)
